Key:
[1] = target: Trypanosoma brucei cytidine deaminase (recombinant His tag fusion protein) (Trypanosoma brucei brucei (427 strain)); assay: SEC; gel filtration of purified recombinant TbCDA on Superdex 200, 50 mM phosphate buffer (pH 7.4) plus 150 mM NaCl, calibrated with molecular weight markers; 500 ul injected
[2] = substrate: Nc1ccn([C@@H]2O[C@H](CO)[C@@H](O)[C@H]2O)c(=O)n1; assay: purified protein; format: biochemical, Trypanosoma brucei; conditions: 50 mM Tris-HCl pH 7.5, 1 mM DTT, 0.125 μM enzyme
[3] = substrate: Nc1ccn([C@H]2C[C@H](O)[C@@H](CO)O2)c(=O)n1; assay: purified protein; format: biochemical, Trypanosoma brucei; conditions: 50 mM Tris-HCl pH 7.5, 1 mM DTT, 0.125 μM enzyme
[4] = substrate: Cc1cn([C@H]2C[C@H](O)[C@@H](CO)O2)c(=O)nc1N; assay: purified protein; format: biochemical, Trypanosoma brucei; conditions: 50 mM Tris-HCl pH 7.5, 1 mM DTT, 0.125 μM enzyme

Molecule	stoichiometry N [1]	Km [2] [µM]	Vmax [2] [µmol/min/mg]	kcat [2] [s⁻¹]	kcat/Km [2] [M⁻¹ s⁻¹]	Km [3] [µM]	Vmax [3] [µmol/min/mg]	kcat [3] [s⁻¹]	kcat/Km [3] [M⁻¹ s⁻¹]	Km [4] [µM]	Vmax [4] [µmol/min/mg]	kcat [4] [s⁻¹]	kcat/Km [4] [M⁻¹ s⁻¹]
Trypanosoma brucei cytidine deaminase (recombinant His tag fusion protein) (enzyme)	4												
TbCDA (Trypanosoma brucei brucei TREU927) (protein) MQCSSLKTGCLKLLSQLPEGLQQAGRTAVSAHQRSYCPYSNFAVGAALLHDDGKVTSGCNYETCVYKGTCAEACAIVKANMDGYRTAQAVAIYGRSVLPTAAAAAADATVPPCGFCRQLLAEVADLSGNMNDFLVVLVTFDQEHARLFRLSELLPQPFGPSSIGMDVAALATGEHSRCPGTF		199.5 ± 9.0	126	44.8 ± 1.2	225000	52.3 ± 4.5	34.9	12.4 ± 0.293	238000	24.5 ± 3.3	5.9	2.09 ± 0.08	85000

Source: publication PMC6686228, “Contribution of Cytidine Deaminase to Thymidylate Biosynthesis in Trypanosoma brucei: Intracellular Localization and Properties of the Enzyme” (mSphere, 2019)
